Key:
Conditions in all cases: EMSA per cited procedure (ref 27); buffer, salt, pH and temperature not given in the material
[1] = test system: T1, TarR (Bacillus velezensis FZB42), ORF:a9b72c09; test: EMSA
T1 sequence: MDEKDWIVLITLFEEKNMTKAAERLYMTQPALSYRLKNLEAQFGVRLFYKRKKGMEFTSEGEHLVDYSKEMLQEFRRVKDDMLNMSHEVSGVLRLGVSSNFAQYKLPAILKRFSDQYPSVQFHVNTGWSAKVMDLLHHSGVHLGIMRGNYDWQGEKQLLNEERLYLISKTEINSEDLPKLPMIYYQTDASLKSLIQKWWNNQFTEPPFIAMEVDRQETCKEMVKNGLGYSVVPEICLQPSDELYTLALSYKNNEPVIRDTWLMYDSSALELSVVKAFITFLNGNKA

[2] = test system: T2, TarRN1-91 (Bacillus velezensis FZB42), ORF:46dabd2b; test: EMSA?
T2 sequence: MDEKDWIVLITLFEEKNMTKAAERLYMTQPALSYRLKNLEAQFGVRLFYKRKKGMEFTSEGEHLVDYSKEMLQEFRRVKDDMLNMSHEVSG

[3] = test system: T1, TarR (Bacillus velezensis FZB42), ORF:a9b72c09; test: DNase I footprinting

With “AGCGAAAATATTTTTTAAAAAAGTATTGACCTAGCAAACTGAAAATGTTATGATTAAGAGGTCGCTTCGAGAGAAGCAACAAAGTTCTTTGAAAACTAAACAAGACAAAACGTACCTGTTAATTCAAAGTTTTAAATAAATCGCACAGCGATGTGCGTAGTCAGTCAAACTAC (double strand) [P16S]” the binding [1] was “no binding”.
For “GCTGTCTCATCCTTACATCATTTTGTGTGGATAAAAAGGTACCGGTCCCTTTGGAAAATATCGTATGATAAATAAGGATTATAAGTAAAACATATAATTTTTATAAAGTTGAATAAAAAAAATTTATAATAAGAGAAAATTTTATAGCAGAAAAATATTTTGGGGGATTTCAT (double strand) [Ptar]”, the binding [1] was “binds”, the binding [2] was “binds” and the binding [3] was “binds”.
